Patent US6187552A, “Method for identifying inhibitors of JAK2/cytokine receptor binding” (Pharmacia & Upjohn Company, priority 1998, dated 2001)

Experiments:
[1] = tested on: peptide 4 (βc peptide) bound to SPA beads; assay: SPA competition: unlabeled JAK2 against labeled JAK2/NJAK2 for peptide 4 bound to SPA beads; type: binding, human
[2] = JAK2 remaining soluble after ultracentrifugation (ELISA) / aggregation; type: physicochemical
Procedure: Recombinant JAK2 protein containing the Flag affinity label ([…]) [SEQ ID NO:20] was expressed in either SF9 or HI-5 cells as described. Cells were lysed by dounce homogenization (20 strokes) in 1X phosphate buffered saline (PBS), pH 7.5 at 4 C. Clarified extract was passed through an anti-Flag immunoaffinity column (Kodak, New Haven, Conn.) and purified recombinant JAK2 was eluted by competition with a solution of Flag peptide at a concentration of 250 ug/ml in 1×PBS. Purity was characterized by a single band on SDS polyacrylamide gels. For some experiments, the JAK2 protein (0.15 mg/ml), aliquoted into 7 equivalent tubes, was then subjected to ultracentrifugation in an Airfuge using an A-110 rotor at an average of 164,000×g for a period of 6 hours at ambient temperature. At zero time, and at each subsequent hour thereafter, a tube of JAK2 was removed for analyses (ELISA, SDS polyacrylamide gel electrophoresis, and Western blotting).
Aliquots of the above supernatants were removed and subjected to an ELISA assay. Each solution was diluted 1:50 with 0.1M sodium carbonate, pH 9.0, and applied in multiple concentrations to a 96 well plate. After an overnight incubation, each well was washed with 0.1% BSA in 1×PBS, pH 7.5 (wash buffer), followed by continued incubation for an additional hour at 4 C. The wells were then incubated with 150 ul of C20 anti-JAK2 antibody (Santa Cruz Biotechnology, Santa Cruz, Calif.) in wash buffer for 1 hour at 4 C., followed by extensive washes with wash buffer. Secondary antibody (150 ul of alkaline phosphatase labeled goat anti-rabbit IgG (Promega, Madison, Wis.) at a dilution of 1:2000) was applied for 1 hour at 4 C., followed by extensive washes with buffer. Finally, wells were incubated with 0.1 M Tris HCl, 5 mM MgCl2, pH 9.5, and then with the same buffer (150 ul) containing 5 mg/ml p-nitrophenylphosphate (pNPP). Color formation was read by a SpectraMax 250 plate reader set at an absorbance of 405 nm. The linear phase of each concentration curve was chosen for each of the time points (0,1,2,3,4,5,and 6 hours of ultracentrifugation) in order to calculate the relative amount of recombinant JAK2 remaining in the supernatant of each fraction.
To see whether more highly aggregated JAK2 could be separated by ultracentifugation from less aggregated or monomeric JAK2, a sample of freshly purified JAK2 at a defined concentration was centrifuged in an airfuge as described in Materials and Methods. Samples were taken at 7 different time points over a 6 hour period to assess the amount of JAK2 which remained in the supernatant phase. After 1 hour at 164,000×g, 40 to 50% of the original JAK2 was detected, a value which remained relatively constant for up to 5 additional hours in this experiment. […] Since the supernatant was removed from below the meniscus by pipetting, a determination of the molecular weight could not be established in this experiment.

human JAK2 = target: T1, human JAK2 (Homo sapiens, UniProt O60674); assay: SPA: binding of 3H-JAK2 to βc peptides on streptavidin-coated beads; conditions: JAK2 from 32.5 nM to 16.25 nM; FIG. 14
T1 construct: NJAK2 = N-terminal 294 residues
Procedure: Cells were lysed by dounce homogenization (20 strokes) in 1X phosphate buffered saline (PBS), pH 7.5 at 4 C. […] For some experiments, the JAK2 protein (0.15 mg/ml), aliquoted into 7 equivalent tubes, was then subjected to ultracentrifugation in an Airfuge using an A-110 rotor at an average of 164,000×g for a period of 6 hours at ambient temperature. At zero time, and at each subsequent hour thereafter, a tube of JAK2 was removed for analyses (ELISA, SDS polyacrylamide gel electrophoresis, and Western blotting).
Three different labeling reactions were done using ^3 H-N-succinimidyl propionate (^3 H-NSP, Amersham Life Sciences, Arlington Heights, Ill.). One reaction was done using 0.5 mg of purified JAK2 in 0.1 M borate buffer, pH 8.5, with a reaction volume of 150 μl and an incubation time of one hour on ice with dried 1 mCi of ^3 H-NSP (toluene was removed using a stream of nitrogen). […] Another reaction was done using the buffer 0.1 M sodium phosphate, pH 8.0, and a similar volume as before. One milligram of JAK2 in 1.2 ml of phosphate buffer was incubated for three hours on ice. […]
Triplicate reactions were done for each data point. […] The plates were then read on a MicroBeta (Wallac) set to read scintillation due to tritium.
Either ^3 H-JAK2 or ^3 H-NJAK2 was added to the wells and, after incubation, the signals measured. […]

| competition of labeled JAK2 binding ([1]; 5-fold excess unlabeled JAK2, peptide 4) | competition of labeled NJAK2 binding ([1]; 10-fold excess unlabeled JAK2, peptide 4) | signal obtained on lowering final JAK2 concentration (human JAK2) | Molecule | % JAK2 Remaining ([2]; 0 hours ultracentrifugation) [%] | % JAK2 Remaining ([2]; 1 hour ultracentrifugation, 164,000×g) [%] | % JAK2 Remaining ([2]; 2 hours ultracentrifugation, 164,000×g) [%] | % JAK2 Remaining ([2]; 3 hours ultracentrifugation, 164,000×g) [%] | % JAK2 Remaining ([2]; 4 hours ultracentrifugation, 164,000×g) [%] | % JAK2 Remaining ([2]; 5 hours ultracentrifugation, 164,000×g) [%] | % JAK2 Remaining ([2]; 6 hours ultracentrifugation, 164,000×g) [%] | original JAK2 detected in supernatant ([2]; after 1 hour at 164,000×g, relatively constant up to 5 additional hours) [%] | JAK2 remaining soluble as defined by ELISA ([2]; after ultracentrifugation) [%] | aggregation by size exclusion chromatography ([2]; data not shown) | apparent Kd versus more aggregated JAK2 ([1]; inferred from competition of supernatant, FIG. 18) | competition with labeled JAK2 versus starting material ([1]; supernatant after ultracentrifugation, peptide 4 on beads, FIG. 18) |
| --- | --- | --- | --- | --- | --- | --- | --- | --- | --- | --- | --- | --- | --- | --- | --- |
| competed significantly | reduced almost to background | decreases significantly | JAK2: Recombinant JAK2 protein containing the Flag affinity label, expressed in SF9 or HI-5 cells (protein, Flag tag) MACLTMTEMEGTSTSSIYQNGDISGNANSMKQIDPVLQVYLYHSLGKSEADYLTFPSGEYVAEEICIAASKACGITPVYHNMFALMSETERIWYPPNHVFHIDESTRHNVLYRIRFYFPRWYCSGSNRAYRHGISRGAEAPLLDDFVMSYLFAQWRHDFVHGWIKVPVTHETQEECLGMAVLDMMRIAKENDQTPLAIYNSISYKTFLPKCIRAKIQDYHILTRKRIRYRFRRFIQQFSQCKATARNLKLKYLINLETLQSAFYTEKFEVKEPGSGPSGEEIFATIIITGNGGIQWSRGKHKESETLTEQDLQLYCDFPNIIDVSIKQANQEGSNESRVVTIHKQDGKNLEIELSSLREALSFVSLIDGYYRLTADAHHYLCKEVAPPAVLENIQSNCHGPISMDFAISKLKKAGNQTGLYVLRCSPKDFNKYFLTFAVERENVIEYKHCLITKNENEEYNLSGTKKNFSSLKDLLNCYQMETVRSDNIIFQFTKCCPPKPKDKSNLLVFRTNGVSDVPTSPTLQRPTHMNQMVFHKIRNEDLIFNESLGQGTFTKIFKGVRREVGDYGQLHETEVLLKVLDKAHRNYSESFFEAASMMSKLSHKHLVLNYGVCVCGDENILVQEFVKFGSLDTYLKKNKNCINILWKLEVAKQLAWAMHFLEENTLIHGNVCAKNILLIREEDRKTGNPPFIKLSDPGISITVLPKDILQERIPWVPPECIENPKNLNLATDKWSFGTTLWEICSGGDKPLSALDSQRKLQFYEDRHQLPAPKWAELANLINNCMDYEPDFRPSFRAIIRDLNSLFTPDYELLTENDMLPNMRIGALGFSGAFEDRDPTQFEERHLKFLQQLGKGNFGSVEMCRYDPLQDNTGEVVAVKKLQHSTEEHLRDFEREIEILKSLQHDNIVKYKGVCYSAGRRNLKLIMEYLPYGSLRDYLQKHKERIDHIKLLQYTSQICKGMEYLGTKRYIHRDLATRNILVENENRVKIGDFGLTKVLPQDKEYYKVKEPGESPIFWYAPESLTESKFSVASDVWSFGVVLYELFTYIEKSKSPPAEFMRMIGNDKQGQMIVFHLIELLKNNGRLPRPDGCPDEIYMIMTECWNNNVNQRPSFRDLALRVDQIRDNMAGDYKDDDDKN | 100 | 46.0 | 39.6 | 32.5 | 43.7 | 44.1 | 41.3 | 40 to 50 | 50 | exhibited degrees of aggregation |  |  |
|  |  |  | JAK2 from the supernatant: supernatant after 1 hour of ultracentrifugation of JAK2 (protein, UniProt O60674 1-1132, looked up) Tyrosine-protein kinase JAK2: MGMACLTMTEMEGTSTSSIYQNGDISGNANSMKQIDPVLQVYLYHSLGKSEADYLTFPSGEYVAEEICIAASKACGITPVYHNMFALMSETERIWYPPNHVFHIDESTRHNVLYRIRFYFPRWYCSGSNRAYRHGISRGAEAPLLDDFVMSYLFAQWRHDFVHGWIKVPVTHETQEECLGMAVLDMMRIAKENDQTPLAIYNSISYKTFLPKCIRAKIQDYHILTRKRIRYRFRRFIQQFSQCKATARNLKLKYLINLETLQSAFYTEKFEVKEPGSGPSGEEIFATIIITGNGGIQWSRGKHKESETLTEQDLQLYCDFPNIIDVSIKQANQEGSNESRVVTIHKQDGKNLEIELSSLREALSFVSLIDGYYRLTADAHHYLCKEVAPPAVLENIQSNCHGPISMDFAISKLKKAGNQTGLYVLRCSPKDFNKYFLTFAVERENVIEYKHCLITKNENEEYNLSGTKKNFSSLKDLLNCYQMETVRSDNIIFQFTKCCPPKPKDKSNLLVFRTNGVSDVPTSPTLQRPTHMNQMVFHKIRNEDLIFNESLGQGTFTKIFKGVRREVGDYGQLHETEVLLKVLDKAHRNYSESFFEAASMMSKLSHKHLVLNYGVCVCGDENILVQEFVKFGSLDTYLKKNKNCINILWKLEVAKQLAWAMHFLEENTLIHGNVCAKNILLIREEDRKTGNPPFIKLSDPGISITVLPKDILQERIPWVPPECIENPKNLNLATDKWSFGTTLWEICSGGDKPLSALDSQRKLQFYEDRHQLPAPKWAELANLINNCMDYEPDFRPSFRAIIRDLNSLFTPDYELLTENDMLPNMRIGALGFSGAFEDRDPTQFEERHLKFLQQLGKGNFGSVEMCRYDPLQDNTGEVVAVKKLQHSTEEHLRDFEREIEILKSLQHDNIVKYKGVCYSAGRRNLKLIMEYLPYGSLRDYLQKHKERIDHIKLLQYTSQICKGMEYLGTKRYIHRDLATRNILVENENRVKIGDFGLTKVLPQDKEYYKVKEPGESPIFWYAPESLTESKFSVASDVWSFGVVLYELFTYIEKSKSPPAEFMRMIGNDKQGQMIVFHLIELLKNNGRLPRPDGCPDEIYMIMTECWNNNVNQRPSFRDLALRVDQIRDNMAG |  |  |  |  |  |  |  |  |  |  | higher apparent Kd than the more aggregated JAK2 | competed less effectively than the starting material |
